This note sets out measurements from publication PMC7145715.

In this data set the target is KDM4B (1-350) (UniProt O94953 1-350). Description: EMSA.
KDM4B (1-350), sequence (O94953 1-350): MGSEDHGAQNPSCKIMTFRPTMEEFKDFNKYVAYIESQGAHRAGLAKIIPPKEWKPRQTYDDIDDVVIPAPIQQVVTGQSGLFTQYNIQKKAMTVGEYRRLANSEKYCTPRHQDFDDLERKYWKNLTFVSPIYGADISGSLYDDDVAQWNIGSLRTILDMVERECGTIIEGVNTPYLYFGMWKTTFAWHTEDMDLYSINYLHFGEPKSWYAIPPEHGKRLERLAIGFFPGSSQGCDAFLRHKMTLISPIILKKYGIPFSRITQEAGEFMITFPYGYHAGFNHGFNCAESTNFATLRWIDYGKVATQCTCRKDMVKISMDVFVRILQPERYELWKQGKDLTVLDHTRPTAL

B1: WT-4BRBS (AR-A2) (ssRNA)
RNA: CUCAUCUCCAGUCUGAGUAAUAAUGCUUAUAGUAUUAUGG
Turning to B1, the binding result is given as “binds”.
